# Laboratory results: article doi:10.1101/2021.03.25.436565
# Where two headings read alike, the source gives them in different places.
# What was measured:
# Experiment in all cases: EMSA
# [1] = target: T1, CSB-HD (helicase-like domain) (human, UniProt Q03468 498-1002)
# [2] = target: T1, CSB-HD (helicase-like domain); remark: listed apart in the source
# [3] = target: T1, CSB-HD (helicase-like domain); remark: listed apart in the source
# [4] = target: T1, CSB-HD (helicase-like domain); remark: listed apart in the source
# [5] = target: T1, CSB-HD (helicase-like domain); remark: listed apart in the source
# T1 sequence (Q03468 498-1002): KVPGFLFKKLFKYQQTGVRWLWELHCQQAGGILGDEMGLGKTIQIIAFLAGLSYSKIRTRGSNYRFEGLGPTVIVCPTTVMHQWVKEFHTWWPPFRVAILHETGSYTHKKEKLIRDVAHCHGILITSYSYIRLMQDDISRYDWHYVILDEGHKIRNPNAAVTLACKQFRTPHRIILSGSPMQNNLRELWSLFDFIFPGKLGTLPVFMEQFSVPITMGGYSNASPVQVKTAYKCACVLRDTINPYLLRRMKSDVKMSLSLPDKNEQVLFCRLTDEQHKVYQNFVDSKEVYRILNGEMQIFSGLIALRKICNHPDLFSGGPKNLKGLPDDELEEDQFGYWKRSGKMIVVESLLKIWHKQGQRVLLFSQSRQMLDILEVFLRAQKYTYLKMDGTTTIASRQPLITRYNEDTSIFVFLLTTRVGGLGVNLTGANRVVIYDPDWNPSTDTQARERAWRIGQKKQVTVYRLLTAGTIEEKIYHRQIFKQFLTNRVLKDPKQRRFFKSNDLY
molecule,measurement,setting,value
"5'-tailed rDNA, annealed in KCl (intermolecular G4)",Kd,[1],0.557 nM
3'-tailed rDNA,Kd,[1],0.176 nM
TGAGGGTGGGTAGGGTGGGTAA (structured_DNA) [untailed c-MYC],binding result,[2],no binding
AAATGGGTGGGTAGGGTGGGTATAATTATAAATAAATAATA (structured_DNA) [3'-tailed c-MYC],binding result,[3],no binding
ATAATTATAAATAAATAATAGGGAGGGAGACGGGGGGG (structured_DNA) [5'-tailed rDNA-3],Kd,[4],0.977 nM
AGGGTCGGGGGGTGGGGCCCGGGCCGGGG (structured_DNA) [untailed rDNA-2],binding result,[2],no binding
ATAATTATAAATAAATAATGGGGTTTTGGGG (structured_DNA) [5'-tailed O. nova d(G4T4G4)],Kd,[5],0.00988 nM
ATAATTATAAATAAATAATAGGGTCGGGGGGTGGGGCCCGGGCCGGGG (structured_DNA) [5'-tailed rDNA-2],Kd,[4],0.36 nM
